Data: the nanobody polyreactivity screen of Harvey et al. (2022)

Experiment: yeast display, Sf9 membrane polyspecificity reagent, FACS + sequencing; frameworks hold sequencing errors
Method in brief: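 Polyreactivity labels are assigned by the sorting gate from which each nanobody was recovered. The gates were low and high (top ~1%), set on anti-HA fluorescence for expression and streptavidin fluorescence for reagent binding. Before sorting, galactose-induced (36–48 hours) yeast display cells were stained for 1 hour at 4 °C with 10% biotinylated, detergent-solubilized Sf9 membrane reagent.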

| Sequence | polyreactivity (PSR sort gate) |
| --- | --- |
| QVQLVESGGGLVQAGGSLRLSCAASGRTFWVYAMGRYRQAPGKEREFVAAISSNGDRTYYADSVKGRFTISRDNAKNTVYLQMNSLKPEDTAVYYCNSRKQYRYLADRMDYWGQGTQVTVSS | high polyreactivity |
| QVQLVESGGGLVQAGGSLRLSCAASGRTFWWYAMGWYRQAPGKERELVATINVSGGSTYYADSVKGRFTISRDNAKNTVYFQINSLKPEDTAVYYCNKRGFYTPSVSYDYWGQGTQVTVSS | low polyreactivity |
| QVQLVESGGGLVQAGGSLRLSCAASGRTFWYYTMGWYRQAPGKERELVASITYRGGSTYYADSVKGRFTISRDNAKNTVYLQMNSLKPEDTAVYYCNARSGNRYGPRYDYWGQGTQVTVSS | high polyreactivity |
| QVQLVESGGGLVQAGGSLRLSCAASGRTFYANAMGWYRQAPGKERELVAAISTGGDGTYYADSVKGRFTISRDNAKNTVYLQMNSLKPEDTAVYYCAVRHRASGILYDYWGQGTQVTVSS | low polyreactivity |
| QVQLVESGGGLVQAGGSLRLSCAASGRTFYAYAMGWYRQAPGKERELVAAISWRGGDTYYADSVKGRFTISRDNAKNTVELQMNSLKPEDTAVYYCAKDLSRQSGDGEYDYWGQGTQVTVSS | low polyreactivity |
| QVQLVESGGGLVQAGGSLRLSCAASGRTFYAYAMGWYRQAPGKERELVASISDRGGSTYYADSVKGRFTISRDNAKNTVYVQMNSLKPEDTAVYYCAAEYRTQRWFGSWGQGTQVTVSS | high polyreactivity |
| QVQLVESGGGLVQAGGSLRLSCAASGRTFYAYTRGWYRQAPGKERELVAAISSSGTRTYYADSVKGRFTISRDNAKNTVYLQMNSLKPEDTAVYDCAKGTQRFRGLDHGYDYWGQGTQVTVSS | high polyreactivity |
| QVQLVESGGGLVQAGGSLRLSCAASGRTFYDNAMGWYRQAPGKERELVAAISWSGGSTYADSVKGRFTISRDNAKNTVYLQMNSLKPEDTAVYYCNADAWLASGYRYDYWGQGTQVTVSS | low polyreactivity |
| QVQLVESGGGLVQAGGSLRLSCAASGRTFYDNAMGWYRQAPGKERELVAVISTSGARTYYADSVKGRFTISRDNAKNTVYLQMNSLKPEDTAVYYCAARRYKYSWDSGYDLYYWGQGTQVTVSS | high polyreactivity |
| QVQLVESGGGLVQAGGSLRLSCAASGRTFYDNVMGWYRQAPGKERELVAAISSGGSTNYADSVKGRFTISRDNAKNTVYLQMNSLIPEDTAVYYCATNGGGGWAYEYWGQGTQVTVSS | low polyreactivity |
| QVQLVESGGGLVQAGGSLRLSCAASGRTFYDYAMGWYRQAPGKERELVAAISRRAGSTYYADSVKGRFTISRDNAKNTVYLQMNSLKPEDTAVYYCAAAYYRRWWRGHHYAFDYWGQGTQVTVSS | high polyreactivity |
| QVQLVESGGGLVQAGGSLRLSCAASGRTFYFNGMGWYRQAPGKERELVATITASGTITYYADSVKGRFTISRDNAKNTVYLQLNSLKPEDTAVYYCAARQRGYYYSRRYDYWGQGTQVTVTS | high polyreactivity |
| QVQLVESGGGLVQAGGSLRLSCAASGRTFYFNGMGWYRQAPGKERELVATITASGTITYYADSVKGRFTISRDNAKNTVYLQMNSLKPEDTAVYYCAARQRGYYYSRSYDYWGQGTQVTVSS | high polyreactivity |
| QVQLVESGGGLVQAGGSLRLSCAASGRTFYFYTLGWYRPAPGKERELVAAITSGGSTNYADSVKGRFTISRDNAKNTVYLQMNSLIPEDTAVYYCAAKYYRVYGYGLRMYYWGQGTQVTVSS | high polyreactivity |
| QVQLVESGGGLVQAGGSLRLSCAASGRTFYFYVMGWYRQAPGKERELVARISWSGGSTYYADSVKGRFTISRDNAKNTVYLQMNSLKPEDTAVYYCARQYKYPSSGEYDSWGQGTQVSVSS | low polyreactivity |
| QVQLVESGGGLVQAGGSLRLSCAASGRTFYGNVMGWYRQAPGKERELVATISYSAGSTYYADSVKGRFTISRDNAKNTVYFQMNSLKPEDTAVYYCAAAGYVYHWAPRGSRYYYWGQGTQVTVSS | low polyreactivity |
| QVQLVESGGGLVQAGGSLRLSCAASGRTFYGYAMGRYRQAPGKERELVAAISSGGSTYYADSVKGRFTISRDNAKNTVYLQMNSLKPEDTAVYDCAAVKWRRHGGSSEYDYWGQGTQVTVSS | high polyreactivity |
| QVQLVESGGGLVQAGGSLRLSCAASGRTFYGYAMGWYRQAPGKERELVAAISRSGGRTYYADSVKGRFTISRDNAKNTVYLQMNSLKPEDTAVYYCAAYSVYASPDDYWGQGTQVTVSS | high polyreactivity |
| QVQLVESGGGLVQAGGSLRLSCAASGRTFYGYAMGWYRQAPGKERELVAGITSRVGSTYYADSVKGRFTISRDNAKNTVYLQMNSLKPEDTAVYYCAADRYAVRSYHYDYWGQGTQVTVSS | low polyreactivity |
| QVQLVESGGGLVQAGGSLRLSCAASGRTFYGYGMGWFRQAPGTDRELVAAIRVGGGSTYYADSVKGRFTISRDNAKNTVYLQMNILKPEDTAVYYCASAIYHYRQKDGYWGQGTQVTVSS | high polyreactivity |

| Sequence | polyreactivity (PSR sort gate) |
| --- | --- |
| QVQLVESGGGLVQAGGSLRLSCAASGRTFYGYTMGWYRQAPGKERELVAAISWTGGRTYYADSVKGRFTISRDNAKNTVYLQMNSLKPEDTAVYYCAARRYQSEDVPYGYWGQGTQVTVSS | high polyreactivity |
| QVQLVESGGGLVQAGGSLRLSCAASGRTFYHYAMGLYRQAPGKERELVAALNRVGGTNYADSVKGRFTISRDNAKNTVYLQMNSLKPEDTAVYYCNADIVARSSYSTKYEEFYYWGLGTQVTVSS | low polyreactivity |
| QVQLVESGGGLVQAGGSLRLSCAASGRTFYHYTMGWSSQAPGKERELVARITRRVGSTYYADSVKGRFTISRDNTKNTVYLQMNSLKPEDTAVYYCNAKSGVYRYLLDYWGQGTQVTVTS | high polyreactivity |
| QVQLVESGGGLVQAGGSLRLSCAASGRTFYHYTMGWYRQAPGKERELVARITRRVGSTYYADSVKGRFTISRDNAKNTVYLQMNSLKPEDTAVYYCNDKSGLYRYLLDYWGQGTQVTVSS | high polyreactivity |
| QVQLVESGGGLVQAGGSLRLSCAASGRTFYINAMGWYRQAPGKERELVAAITWSGGRTYYADSVKGRFTISRDNAKNTVYLQMNSLKPEDTAVYYCNTRSYSYYVPYRYDYWGQGSQVTVSS | high polyreactivity |
| QVQLVESGGGLVQAGGSLRLSCAASGRTFYIYAMGWYRQAPGKERELVAAITRIDGSTYYADSVKGRFTISRDNAKNTVYLQMNSLKPEDTAVYYCAAEYGPGLTEGLYYYWGQGTQVTVSS | high polyreactivity |
| QVQLVESGGGLVQAGGSLRLSCAASGRTFYIYAMGWYRQAPGKERELVADITSGGSTYYADSVKGRFTISRDNAKNTVYLQMNSLKPDDTAVYYCAADWVTFYSYTEYDYWGQGSQVTVSS | low polyreactivity |
| QVQLVESGGGLVQAGGSLRLSCAASGRTFYIYAMGWYRQAPGKERELVARITTGGRTNYADSVKGRFTISRDNAKNTVYLQMNSLKPEDTAVYYCATQYRGRQRKYDYWGQGTQVTVSS | high polyreactivity |
| QVQLVESGGGLVQAGGSLRLSCAASGRTFYIYAMGWYRQAPGKERELVATIDSTGSTNYADSVKGRFTISRDNAKNTVYLQMNSLKPEDTAVYYCNADDWVGRSLRYDYWGQGTQVTVSS | low polyreactivity |
| QVQLVESGGGLVQAGGSLRLSCAASGRTFYIYTMGWYRQAPGKERELVATAITSGGITYYADSVKGRFTISRDNAKNTVYLQMNSLKPEDTAVYYCAADDYYGYYGFNYWGQGTQVTVSS | low polyreactivity |
| QVQLVESGGGLVQAGGSLRLSCAASGRTFYKNTMGWYRQAPGKERELVATIYQRGGSTYYADSVKGRFTISRDNAKNTVYLQMNSLKREDTAVYYCNARKYTQSIHYDYWGQGTQVTVSS | high polyreactivity |
| QVQLVESGGGLVQAGGSLRLSCAASGRTFYKYAMGWYRQAPGKERELVAAISGGGTTNYADSVKGRFTISRDNAKNTVYLQMNSLKPEDTAVYYCNAARTRWATGYDYWGQGTQVTVSS | low polyreactivity |
| QVQLVESGGGLVQAGGSLRLSCAASGRTFYKYGRGWYRQAPRKERELVASISSGGNTYYADSVKGRFTISRDNAKHTVYLQMNSLKPDASAVFYCAAVNYWPFYYYVYGYWGQGTQVTVSS | high polyreactivity |
| QVQLVESGGGLVQAGGSLRLSCAASGRTFYLYAMGWYRQAPGKERELVAAITKSGGSTYYADSVKGRFTISRDNAKNTVYLQMNSLKPEDTAVYYCATDGRWRLAGAFTGKRRTYDYWGQGTQVTVSS | low polyreactivity |
| QVQLVESGGGLVQAGGSLRLSCAASGRTFYLYAMGWYRQAPGKERELVDTITESVGNTYYADSVKGRFTISRDNAKNTVYLQMNSLKPEDTAVYYCAATYKYYLYQPKTLFREGDYWGQGTQVTVSS | low polyreactivity |
| QVQLVESGGGLVQAGGSLRLSCAASGRTFYLYAMGWYRQAPGTERELVADITSGGSTYYADSVKGRFTISRDNAKNTVYLQMNSLKPEDTAVYYCAADWVTFYSYTEYDYWGQGTQVTVSS | low polyreactivity |
| QVQLVESGGGLVQAGGSLRLSCAASGRTFYLYGMGWYRQAHGKETELVAAITLSDGSTYYADSVKGRFTISRDNAKNTVYLQMNSLKPEDTAVYYCAARDYPFPYAMNYWGQGTQVTVSS | low polyreactivity |
| QVQLVESGGGLVQAGGSLRLSCAASGRTFYNAMGWYIQAPGKERELVAAITTGGGTKYADSVKGRFTISRDNAKNTVYLQMHSLQPEDTAVYYCNTDAWYHFYHGAHKFDYWGQGTQVTVSS | low polyreactivity |
| QVQLVESGGGLVQAGGSLRLSCAASGRTFYNAMGWYRPAPGKERELVAAISGSGGSTYYADSVKGRFTISRDNAKNTVYLKMNSLKPEDTAVYYCAARSVWWQVSQGNYWGQGTQVTVSS | low polyreactivity |
| QVQLVESGGGLVQAGGSLRLSCAASGRTFYNNAMGWYRQAPGKERELVATINNRGGTTYYADSVKGRFTISRDNAKNTVYLQMNSLKPEDSAVYYCAKSAQRYSYRYYYWGQGTQVTVSS | high polyreactivity |
